This note sets out measurements from patent publication US20100119506A1 (published 2010).

Test [1] deals with T1, Murine PAR-2 peptide (murine).
T1 construct: also called mouse PAR-2 peptide
T1 peptide: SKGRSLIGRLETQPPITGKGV
Put plainly: Kinexa, peptide in solution. How it is done: (§1) Binding to peptide in solution was determined by Kinexa technology.

For test [2], the target named is T2, Rat PAR-2 peptide (rat).
T2 peptide: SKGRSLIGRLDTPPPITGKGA
Put plainly: Kinexa, peptide in solution. How it is done:
as §1

For the next test, the target named is T3, Cynomolgus PAR-2 peptide (cynomolgus).
T3 peptide: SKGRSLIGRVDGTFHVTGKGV
Put plainly: Kinexa, peptide in solution. The procedure:
as §1

The target of test [3] is T2, Rat PAR-2 peptide. The test can be described thus: Rat PAR-2 Peptide Binding (Kinexa). How it is done:
as §1

For test [4], the target named is T1, Murine PAR-2 peptide. The test can be described thus: Mouse PAR-2 Peptide Binding (Kinexa). The procedure: as §1
Test [5] concerns the target T4, PAR-2 peptide (SEQ ID NO:42) coupled to Transferrin as carrier (coupled to Transferrin as carrier).
T4 construct: Transferrin carrier not further described
T4 peptide: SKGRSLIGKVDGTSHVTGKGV
The test can be described thus: ELISA on peptide. A general note: An ELISA detects its analyte on a solid surface through an enzyme-linked reagent.

The target of test [6] is T5, PAR-1 peptide (SEQ ID NO:43).
T5 peptide: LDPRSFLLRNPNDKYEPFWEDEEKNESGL
The test can be described thus: ELISA on peptide.

The target of test [7] is T6, PAR-4 peptide (SEQ ID NO:44).
T6 peptide: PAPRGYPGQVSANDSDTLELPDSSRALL
The test can be described thus: ELISA on peptide.

Test [8] concerns the target T7, Human PAR-2 on cells (human, UniProt P55085 26-397).
T7 sequence: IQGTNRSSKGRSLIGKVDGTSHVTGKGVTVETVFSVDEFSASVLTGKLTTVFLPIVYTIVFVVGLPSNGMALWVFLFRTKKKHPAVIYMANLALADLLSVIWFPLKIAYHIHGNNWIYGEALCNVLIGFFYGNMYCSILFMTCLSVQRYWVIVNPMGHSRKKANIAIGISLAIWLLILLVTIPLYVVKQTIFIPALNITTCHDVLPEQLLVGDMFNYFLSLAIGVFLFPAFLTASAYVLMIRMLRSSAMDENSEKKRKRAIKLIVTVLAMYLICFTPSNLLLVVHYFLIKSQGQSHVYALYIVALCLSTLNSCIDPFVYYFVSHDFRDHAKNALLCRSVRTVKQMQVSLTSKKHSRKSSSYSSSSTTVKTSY
Put plainly: cell-based or functional assay.

Test [9] concerns the target T8, FLAG-tagged PAR-2 over-expressed on HEK transfectants (Homo sapiens (Human), UniProt P55085 37-397).
T8 sequence: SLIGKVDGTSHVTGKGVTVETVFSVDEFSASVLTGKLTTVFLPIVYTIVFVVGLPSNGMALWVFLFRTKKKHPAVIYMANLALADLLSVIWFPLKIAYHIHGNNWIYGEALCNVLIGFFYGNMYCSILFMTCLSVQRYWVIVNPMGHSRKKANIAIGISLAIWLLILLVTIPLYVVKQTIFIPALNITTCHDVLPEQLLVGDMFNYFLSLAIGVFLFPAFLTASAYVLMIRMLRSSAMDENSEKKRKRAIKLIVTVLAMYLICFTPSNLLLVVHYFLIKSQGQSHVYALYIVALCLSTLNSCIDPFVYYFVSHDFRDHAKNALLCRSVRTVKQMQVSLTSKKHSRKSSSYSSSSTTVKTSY
Put plainly: cell-based or functional assay.

For test [10], the target named is labeled peptide representing the N-terminus of PAR-2 (FRET assay). The test can be described thus: cell-based or functional assay.
The target in test [11] is T7, Human PAR-2 on cells. Put plainly: cell binding of IgG4_Pro, HEK-PAR-2 (#3).
The target in test [12] is T7, Human PAR-2 on cells. Put plainly: binding of IgG4p to PAR-2 transfected HEK cells (HEK-PAR-2 #3).
Test [13] addresses T7, Human PAR-2 on cells. The test can be described thus: cell-based or functional assay. The source holds these as a separate data set.
Test [14] deals with T9, Mouse PAR-2 (endogenous, LLC cells and mouse aortic rings) (mouse, UniProt P55086 39-399).
T9 sequence (looked up): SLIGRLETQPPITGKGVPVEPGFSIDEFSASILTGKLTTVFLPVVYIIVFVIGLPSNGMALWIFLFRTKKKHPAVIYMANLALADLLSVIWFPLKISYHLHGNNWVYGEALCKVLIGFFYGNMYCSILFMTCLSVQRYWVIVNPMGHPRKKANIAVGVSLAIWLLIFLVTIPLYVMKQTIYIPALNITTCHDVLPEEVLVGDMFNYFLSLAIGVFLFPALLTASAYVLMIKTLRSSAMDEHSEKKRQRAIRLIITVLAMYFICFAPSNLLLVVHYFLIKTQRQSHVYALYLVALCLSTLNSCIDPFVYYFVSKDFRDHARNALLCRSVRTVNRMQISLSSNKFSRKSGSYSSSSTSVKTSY
Put plainly: cell-based or functional assay.

Test [15] deals with T10, Rat PAR-2 (endogenous, ARIP cells and rat aortic rings) (rat, UniProt Q63645 37-397).
T10 sequence (looked up): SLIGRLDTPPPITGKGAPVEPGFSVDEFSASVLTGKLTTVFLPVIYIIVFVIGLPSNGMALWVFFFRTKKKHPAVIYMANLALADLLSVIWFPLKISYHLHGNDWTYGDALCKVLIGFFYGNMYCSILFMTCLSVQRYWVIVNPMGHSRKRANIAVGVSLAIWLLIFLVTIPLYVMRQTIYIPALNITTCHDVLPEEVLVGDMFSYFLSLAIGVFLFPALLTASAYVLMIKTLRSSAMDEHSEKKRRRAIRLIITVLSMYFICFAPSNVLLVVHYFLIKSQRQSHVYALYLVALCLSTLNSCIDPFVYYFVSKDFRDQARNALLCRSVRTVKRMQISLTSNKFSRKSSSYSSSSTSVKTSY
The test can be described thus: cell-based or functional assay.

The target of test [16] is T11, Human PAR-2 peptide (SEQ ID NO:1, Residues 33-54) (human).
T11 peptide: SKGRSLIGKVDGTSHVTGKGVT
The test can be described thus: Kinexa, peptide in solution. How it is done:
as §1

In test [17] the target is T7, Human PAR-2 on cells. The test can be described thus: binding to human PAR-2 transfected HEK293 cells.

B1: Antibody Par-D (antibody, V domains shown)
VH: QVELVESGGGLVQPGGSLRLSCAASGFTFSNHAMHWVRQAPGKGLEWVSAISHPGKFTYYADSVKGRFTISRDNSKNTLYLQMNSLRAEDTAVYYCARHGDGMDYFDFWGQGTLVTVSS
VL: DIELTQPPSVSVAPGQTARISCSGDNIGTKYVYWYQQKPGQAPVLVIYDDNNRPSGIPERFSGSNSGNTATLTISGTQAEDEADYYCQSYDSQTMVFGGGTKLTVLG
notes: Codon-optimized version of Ab4996
As to B1, the Kd (as a rule, the equilibrium constant for the complex coming apart) was 0.42 nM with Murine PAR-2 peptide [1]; 0.04 nM with Rat PAR-2 peptide [2]; 0.14 nM with Cynomolgus PAR-2 peptide; 0.04 nM with Rat PAR-2 peptide [3]; 0.42 nM with Murine PAR-2 peptide [4].

B2: Ab4999 IgG4_Pro (antibody, V domains shown)
VH: QVQLVESGGGLVQPGGSLRLSCAASGFTFSSYAMNWVRQAPGKGLEWVSTISYSSSATSYADSVKGRFTISRDNSKNTLYLQMNSLRAEDTAVYYCARIQNDPMDVWGQGTLVTVSS
VL: DIELTQPPSVSVAPGQTARISCSGDNLGKKYVQWYQQKPGQAPVLVIYDDSNRPSGIPERFSGSNSGNTATLTISGTQAEDEADYYCQTWDYSSIRDETNVFGGGTKLTVLG
notes: IgG4_Pro (human IgG4 constant regions, Ser241Pro hinge), lambda; also called IgG4p Ab4999
Turning to B2, the binding result in test [5] is given as “binds”; in [6], “no binding”; in [7] it was “no binding”. Besides, the “FLIPR A549 cells IC50” value with Human PAR-2 on cells [8] was 3.1 nM. For the same molecule, the “FLAG Cell-Based Cleavage Approx. IC50” value in test [9] is below 1 nM. The “FRET Peptide Cleavage IC50” value in test [10] was below 30 nM. The EC50 in the test with Human PAR-2 on cells [11] and with Human PAR-2 on cells [12] was 0.2 nM throughout.

B3: Antibody Par-B (antibody, V domains shown)
VH: QVELVESGGGLVQPGGSLRLSCAASGFTFSSYAMNWVRQAPGKGLEWVSTISYSSSATSYADSVKGRFTISRDNSKNTLYLQMNSLRAEDTAVYYCARIQNDPMDVWGQGTLVTVSS
VL: DIELTQPPSVSVAPGQTARISCSGDNLGKKYVQWYQQKPGQAPVLVIYDDSNRPSGIPERFSGSNSGNTATLTISGTQAEDEADYYCQTWDYSSIRDETNVFGGGTKLTVLG
notes: Codon-optimized version of Ab4999 made in CHO-DG44
In the case of B3, in the test with Human PAR-2 on cells [13], the “Human Keratinocyte/IL-8 assay IC50” value is around 100 nM. Besides, the “Mouse Aortic Ring Assay, shift of EC50 (Trypsin)” value in test [14] is around 5 fold. The “Mouse Cell Line FLIPR IC50” value in test [14] was around 0.4 nM. Also, the “Rat Aortic Ring Assay, shift of EC50 (Trypsin)” value in test [15] is around 8 fold. Besides, the equilibrium dissociation constant (Kd) in test [16] is 0.08 nM; with Murine PAR-2 peptide [1], 0.08 nM; in the test with Rat PAR-2 peptide [2], 0.02 nM; in the test with Cynomolgus PAR-2 peptide, 0.04 nM; with Rat PAR-2 peptide [3], 0.02 nM; with Murine PAR-2 peptide [4], 0.08 nM. In addition, the “fold vs. human peptide” value with Rat PAR-2 peptide [3] amounted to 4 fold; with Murine PAR-2 peptide [4], 1 fold. Besides, the 50% effective concentration (EC50) (in general, the concentration that produces a half-maximal response) in the test with Human PAR-2 on cells [17] was around 0.3 nM.

B4: Ab5151 IgG4_Pro (cross-cloned: light chain of Ab4999 with heavy chain of Ab5007) (antibody, V domains shown)
VH: QVQLVESGGGLVQPGGSLRLSCAASGFTFSSYAMNWVRQAPGKGLEWVSAISFSGHLTGYADSVKGRFTISRDNSKNTLYLQMNSLRAEDTAVYYCARIQNDPMDVWGQGTLVTVSS
VL: DIELTQPPSVSVAPGQTARISCSGDNLGKKYVQWYQQKPGQAPVLVIYDDSNRPSGIPERFSGSNSGNTATLTISGTQAEDEADYYCQTWDYSSIRDETNVFGGGTKLTVLG
notes: IgG4_Pro format
B4: the results for the binding result in [5], in [6] and in test [7] were “binds”, “no binding” and “no binding”, respectively. For the same molecule, the “FLIPR A549 cells IC50” value in the test with Human PAR-2 on cells [8] came to 4 nM. For the same molecule, in [9], the “FLAG Cell-Based Cleavage Approx. IC50” value was below 1 nM. Further, the “FRET Peptide Cleavage IC50” value in test [10] was below 30 nM. For the same molecule, the EC50 with Human PAR-2 on cells [11] is 0.4 nM.

B5: Antibody Par-C (antibody, V domains shown)
VH: QVELVESGGGLVQPGGSLRLSCAASGFTFSSYAMNWVRQAPGKGLEWVSAISFSGHLTGYADSVKGRFTISRDNSKNTLYLQMNSLRAEDTAVYYCARIQNDPMDVWGQGTLVTVSS
VL: DIELTQPPSVSVAPGQTARISCSGDNLGKKYVQWYQQKPGQAPVLVIYDDSNRPSGIPERFSGSNSGNTATLTISGTQAEDEADYYCQTWDYSSIRDETNVFGGGTKLTVLG
notes: Codon-optimized version of Ab5151
For the molecule B5, the Kd (in test [16]; with Murine PAR-2 peptide [1]) was 0.03 nM each time.
